# From patent publication US20110239319, “Use of Endonucleases for Inserting Transgenes Into Safe Harbor Loci” (published 2011)
# Residue numbers refer to the chain shown, from its start.
# T1: SCOH-SH8 (artificial)
# T1 chain: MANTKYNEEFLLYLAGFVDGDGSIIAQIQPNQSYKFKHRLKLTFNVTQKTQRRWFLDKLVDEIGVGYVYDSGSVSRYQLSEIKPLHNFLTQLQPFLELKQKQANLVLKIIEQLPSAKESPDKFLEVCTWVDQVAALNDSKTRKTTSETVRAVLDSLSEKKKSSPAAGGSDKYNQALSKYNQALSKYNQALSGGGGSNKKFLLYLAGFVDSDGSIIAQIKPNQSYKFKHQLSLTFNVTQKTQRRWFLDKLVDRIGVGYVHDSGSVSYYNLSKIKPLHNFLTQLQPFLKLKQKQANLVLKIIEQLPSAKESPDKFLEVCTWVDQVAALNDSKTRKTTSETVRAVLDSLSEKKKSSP
# T2: SCOH-SH18-b11-C.2 (artificial)
# T2 chain: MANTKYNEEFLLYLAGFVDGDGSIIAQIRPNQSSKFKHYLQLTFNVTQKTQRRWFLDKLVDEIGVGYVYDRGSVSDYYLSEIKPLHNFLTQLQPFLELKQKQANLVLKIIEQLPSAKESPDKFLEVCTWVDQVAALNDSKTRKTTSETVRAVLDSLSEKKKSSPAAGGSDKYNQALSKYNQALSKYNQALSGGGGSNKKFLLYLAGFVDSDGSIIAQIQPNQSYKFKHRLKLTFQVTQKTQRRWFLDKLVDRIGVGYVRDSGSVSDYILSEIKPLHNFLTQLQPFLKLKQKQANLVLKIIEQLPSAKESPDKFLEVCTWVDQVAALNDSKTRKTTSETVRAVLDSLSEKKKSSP
# T3: SCOH-SH13 (artificial)
# T3 chain: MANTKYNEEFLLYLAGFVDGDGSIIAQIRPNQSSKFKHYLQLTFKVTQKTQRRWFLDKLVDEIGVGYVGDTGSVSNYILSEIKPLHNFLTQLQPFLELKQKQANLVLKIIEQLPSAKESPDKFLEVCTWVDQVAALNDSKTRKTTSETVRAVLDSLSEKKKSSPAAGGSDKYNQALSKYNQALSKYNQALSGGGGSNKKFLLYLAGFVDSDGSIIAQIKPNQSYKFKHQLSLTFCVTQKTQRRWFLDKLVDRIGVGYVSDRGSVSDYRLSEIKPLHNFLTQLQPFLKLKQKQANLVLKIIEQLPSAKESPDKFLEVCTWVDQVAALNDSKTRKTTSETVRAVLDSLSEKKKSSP
# T4: SCOH-SH6-b11-G2.2_BQY (artificial)
# T4 chain: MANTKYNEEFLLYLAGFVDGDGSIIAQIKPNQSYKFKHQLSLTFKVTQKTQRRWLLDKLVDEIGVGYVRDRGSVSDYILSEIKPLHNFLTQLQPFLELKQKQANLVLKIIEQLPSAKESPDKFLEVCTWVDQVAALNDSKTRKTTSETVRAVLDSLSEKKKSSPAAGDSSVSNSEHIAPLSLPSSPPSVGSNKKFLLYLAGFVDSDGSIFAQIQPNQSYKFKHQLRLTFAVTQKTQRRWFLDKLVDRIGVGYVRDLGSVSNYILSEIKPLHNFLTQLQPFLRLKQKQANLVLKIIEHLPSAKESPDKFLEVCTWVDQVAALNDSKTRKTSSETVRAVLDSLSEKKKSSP
# T5: QCSH61-H01b (QC-SH6-H01_7E) (artificial)
# T5 chain: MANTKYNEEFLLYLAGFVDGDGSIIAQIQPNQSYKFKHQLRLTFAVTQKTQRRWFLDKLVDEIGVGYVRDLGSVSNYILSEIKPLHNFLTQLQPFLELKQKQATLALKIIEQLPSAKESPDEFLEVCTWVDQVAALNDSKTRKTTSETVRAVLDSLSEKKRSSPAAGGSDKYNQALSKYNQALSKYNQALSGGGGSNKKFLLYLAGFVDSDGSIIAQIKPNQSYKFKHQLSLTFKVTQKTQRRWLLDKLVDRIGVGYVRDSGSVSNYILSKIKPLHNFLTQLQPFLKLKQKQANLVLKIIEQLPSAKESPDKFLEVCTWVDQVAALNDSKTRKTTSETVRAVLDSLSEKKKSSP
# T6: QCSH61-H01a (SCOH-QCSH6-H01) (artificial)
# T6 chain: T5 chain with E8R
# T7: SCOH-SH6-b12-G2_BQY (artificial)
# T7 chain: T4 chain with D70G, R71S, D76N
# T8: QCSH61-H01d (QC-SH6-H01_V2_7E_70R75D) (artificial)
# T8 chain: T5 chain with S261R, N266D
# B1: SH8 target (dsDNA)
# DNA 1: ACAATCTGAGGTAAGTAATACTGA
# DNA 2: TCAGTATTACTTACCTCAGATTGT
# B2: SH18 target (dsDNA)
# DNA 1: CTTACCCCACGTACCACAGACTGT
# DNA 2: ACAGTCTGTGGTACGTGGGGTAAG
# B3: SH13 target (dsDNA)
# DNA 1: ATTACACTCTTTAAGTGATTTTAA
# DNA 2: TTAAAATCACTTAAAGAGTGTAAT
# B4: SH6 target (dsDNA)
# DNA 1: TTAATACCCCGTACCTAATATTGC
# DNA 2: GCAATATTAGGTACGGGGTATTAA
# Assays:
# Test in all cases: cell_activity; endogenous locus, 293H
# SCOH-SH8 = biological target: T1, SCOH-SH8
# Description: (§1) Human embryonic kidney 293H cells (Invitrogen) were plated at a density of 1×10⁶ cells per 10 cm dish in complete medium (DMEM supplemented with 2 mM L-glutamine, penicillin (100 UI/ml), streptomycin (100 μg/ml), amphotericin B (Fongizone) (0.25 μg/ml) (Invitrogen-Life Science) and 10% FBS). The next day, cells were transfected with 3 μg of single-chain meganuclease expression vector using Lipofectamine 2000 transfection reagent (Invitrogen) according to the supplier's protocol. After 2 to 6 days of incubation at 37° C., cells were trypsinized and genomic DNA extraction was performed with the DNeasy blood and tissue kit (Qiagen) according to the supplier's protocol.
# (§2) Human embryonic kidney 293H cells were transfected with a plasmid expressing a single-chain safe harbor meganuclease. After 2 to 6 days of incubation at 37° C., genomic DNA was isolated and PCR was used to amplify the genomic sequence surrounding the meganuclease target site. Sequences were then analyzed for the presence of insertions or deletions events (InDel) in the cleavage site of each safe harbor target.
# SCOH-SH18-b11-C.2 = biological target: T2, SCOH-SH18-b11-C.2
# Description: as §1, §2
# SCOH-SH13 = biological target: T3, SCOH-SH13
# Description: as §1, §2
# SCOH-SH6-b11-G2.2_BQY = biological target: T4, SCOH-SH6-b11-G2.2_BQY
# Description: as §1, §2
# [1] = biological target: T5, QCSH61-H01b (QC-SH6-H01_7E)
# Description: as §1, §2
# [2] = biological target: T6, QCSH61-H01a (SCOH-QCSH6-H01)
# Description: as §1, §2
# SCOH-SH6-b12-G2_BQY = biological target: T7, SCOH-SH6-b12-G2_BQY
# Description: as §1, §2
# [3] = biological target: T8, QCSH61-H01d (QC-SH6-H01_V2_7E_70R75D)
# Description: as §1, §2
binder,measurement,setting,value
B1,activity,SCOH-SH8,0.5 % InDels
B2,activity,SCOH-SH18-b11-C.2,1.2 % InDels
B3,activity,SCOH-SH13,1.5 % InDels
B4,activity,SCOH-SH6-b11-G2.2_BQY,3 % InDels
same,activity,[1],1.5 % InDels
same,activity,[2],0.6 % InDels
same,activity,SCOH-SH6-b12-G2_BQY,1 % InDels
same,activity,[3],3.5 % InDels
